Source: US20070265206A1 (PALATIN TECHNOLOGIES, published 2007)
Bridge positions count the residues as written; N and C are the ends.

Experiments:
[1] = target: T1, human natriuretic peptide receptor A (NPRA) (human, UniProt P16066 33-1061); assay: cell-based or functional assay
T1 sequence (looked up): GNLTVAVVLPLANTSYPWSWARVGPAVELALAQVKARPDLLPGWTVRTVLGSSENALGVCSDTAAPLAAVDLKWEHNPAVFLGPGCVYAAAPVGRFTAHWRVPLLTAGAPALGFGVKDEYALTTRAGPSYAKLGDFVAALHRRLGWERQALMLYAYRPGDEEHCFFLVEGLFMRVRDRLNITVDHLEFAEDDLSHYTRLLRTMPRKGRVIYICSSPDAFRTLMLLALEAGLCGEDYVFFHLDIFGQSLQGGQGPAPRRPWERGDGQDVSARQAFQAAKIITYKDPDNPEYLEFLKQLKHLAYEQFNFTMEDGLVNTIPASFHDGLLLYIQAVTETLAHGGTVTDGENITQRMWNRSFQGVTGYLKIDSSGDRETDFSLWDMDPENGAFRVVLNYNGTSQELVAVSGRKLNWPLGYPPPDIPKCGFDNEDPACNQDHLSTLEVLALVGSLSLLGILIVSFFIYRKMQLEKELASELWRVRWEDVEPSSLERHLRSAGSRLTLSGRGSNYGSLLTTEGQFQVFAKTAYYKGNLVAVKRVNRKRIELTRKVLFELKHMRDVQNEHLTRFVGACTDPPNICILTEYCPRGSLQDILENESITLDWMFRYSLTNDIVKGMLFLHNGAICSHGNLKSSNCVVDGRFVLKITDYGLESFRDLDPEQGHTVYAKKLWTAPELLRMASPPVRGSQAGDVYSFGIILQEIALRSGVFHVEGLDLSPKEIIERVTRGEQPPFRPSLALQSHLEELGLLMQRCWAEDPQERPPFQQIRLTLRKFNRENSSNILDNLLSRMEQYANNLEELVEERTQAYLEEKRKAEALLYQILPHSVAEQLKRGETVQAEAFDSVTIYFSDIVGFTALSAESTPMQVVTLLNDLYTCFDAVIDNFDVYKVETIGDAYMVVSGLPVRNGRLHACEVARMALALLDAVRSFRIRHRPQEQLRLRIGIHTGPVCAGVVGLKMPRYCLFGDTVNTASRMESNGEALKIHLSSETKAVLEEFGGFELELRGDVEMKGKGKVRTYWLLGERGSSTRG

[2] = target: T1, human natriuretic peptide receptor A …; assay: competitive inhibition of [125I]-ANP binding to HEK-hNPRA membrane homogenates
Description: Competitive binding assay. A competitive inhibition binding assay was performed using crude membrane homogenates prepared from HEK-hNPRA cells. To prepare membrane homogenates, cells were rinsed with phosphate-buffered saline and incubated for 15 minutes at 4° C. in hypotonic lysis buffer (10 mM Tris, pH 7.4+5 mM EDTA). Cells were transferred from plates to polypropylene tubes and homogenized. Homogenates were centrifuged at 25,000×g for 20 minutes. Pellets were resuspended in buffer consisting of 50 mM Tris (pH 7.4) and 1 mM EDTA, homogenized and centrifuged at 25,000×g for 20 minutes. […] On the day of an assay, homogenates were thawed and homogenized. […] Assays were stopped by addition of cold wash buffer (phosphate-buffered saline) followed by filtration using a vacuum manifold. Bound radioactivity was determined using a gamma counter. […] Data were analyzed using GraphPad Prism® curve-fitting software.

EC50 (accumulation of intracellular cGMP) [1]: 3.3 nM
Ki [2]: 0.6 nM
B1: mini-ANP, H-Met-cyclo(Cys-His-Phe-Gly-Gly-Arg-Met-Asp-Arg-Ile-Ser-Cys)-Tyr-Arg-NH2 (peptide)
peptide: H-MCHFGGRMDRISCYR-NH2
modifications: disulfide 2-13
SMILES: CC[C@H](C)[C@@H]1NC(=O)[C@H](CCCNC(=N)N)NC(=O)[C@H](CC(=O)O)NC(=O)[C@H](CCSC)NC(=O)[C@H](CCCNC(=N)N)NC(=O)CNC(=O)CNC(=O)[C@H](Cc2ccccc2)NC(=O)[C@H](Cc2c[nH]cn2)NC(=O)[C@@H](NC(=O)[C@@H](N)CCSC)CSSC[C@@H](C(=O)N[C@@H](Cc2ccc(O)cc2)C(=O)N[C@@H](CCCNC(=N)N)C(N)=O)NC(=O)[C@H](CO)NC1=O
notes: also called 15-mer disulfide cyclic peptide
